{
  "source": "patent US20240043551A1",
  "about": "(ADLAI NORTYE BIOPHARMA, published 2024)",
  "key": {"[1]": {"target": "T1, His tagged human TNFR2 ECD (Acro Biosystem, TN2-H5227) (human, UniProt P20333 23-257)", "T1 construct": "extracellular domain; Bought protein; also called TNFR2-His; hTNFR2-His; not shown: His tag", "T1 sequence (looked up)": "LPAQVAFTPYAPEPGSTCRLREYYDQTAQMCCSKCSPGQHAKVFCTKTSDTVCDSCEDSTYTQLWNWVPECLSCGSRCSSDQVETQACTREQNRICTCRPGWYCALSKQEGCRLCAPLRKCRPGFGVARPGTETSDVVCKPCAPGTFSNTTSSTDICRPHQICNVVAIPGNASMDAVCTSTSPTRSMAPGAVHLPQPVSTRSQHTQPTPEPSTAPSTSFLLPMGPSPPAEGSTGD", "assay": "monoclonal phage ELISA, hTNFR2-His coated, anti-M13-HRP", "description": "A 96-well ELISA plate was coated with hTNFR2-His and blocked with PBS buffer containing 2% BSA at […], of pre-blocked phage solution was added to the plate and incubated at 37° C. for 30 min. After the plate was washed twice with PBS buffer containing 0.05% Tween 20, phage binding was detected by HRP-conjugated anti-M13 antibody (GE Healthcare). Top binders were picked and the corresponding phagemids in TG1 cell were isolated and subjected to DNA sequencing to obtain VH/VL sequence. The sequences of TN1-36_VH and TN1-36_VL are set forth as SEQ ID NO: 1 and SEQ ID NO: 2, respectively. Antibody numbering and CDR annotation are performed according to IMGT scheme respectively."}, "[2]": {"target": "T2, rat TNFR2 (R&D systems, 8348-R2-050) (rat, UniProt Q80WY6 23-258)", "T2 construct": "Bought protein", "T2 sequence (looked up)": "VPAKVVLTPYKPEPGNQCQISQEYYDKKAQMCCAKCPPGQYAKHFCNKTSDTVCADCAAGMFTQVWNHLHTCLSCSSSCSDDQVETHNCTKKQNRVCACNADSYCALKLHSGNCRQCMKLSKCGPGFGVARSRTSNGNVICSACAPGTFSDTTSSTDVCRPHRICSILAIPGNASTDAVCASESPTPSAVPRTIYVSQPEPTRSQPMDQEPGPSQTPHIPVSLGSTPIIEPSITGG", "assay": "ELISA, receptor coated at 1 µg/ml", "description": "Plates were incubated at 4° C. overnight. Antibodies was titrated from 100 μg/ml in a 5-fold dilution series, and distributed 100 μL, per well and incubated at 37° C. for 1 hour. Human IgG1 isotype control (BioxCell, BE0297) was used as negative control. TNFR2 Polyclonal Antibody (Invitrogen, PAS-80159) and HRP conjugated Goat anti-Rabbit IgG Fc Secondary Antibody (Invitrogen, A16116) were used as positive control for rat TNFR2 detection."}, "[3]": {"target": "T1, His tagged human TNFR2 ECD (Acro …)", "assay": "ELISA, TNFR2-His coated, antibody 0.006 and 0.06 µg/well"}, "[4]": {"target": "T3, Full length human TNFR2 on Jurkat E6-1 cells (Clone NO.3) (human, UniProt P20333 23-461)", "T3 construct": "whole, on cells; also called human TNFR2+ Jurkat cells; hTNFR2 Jurkat", "T3 sequence (looked up)": "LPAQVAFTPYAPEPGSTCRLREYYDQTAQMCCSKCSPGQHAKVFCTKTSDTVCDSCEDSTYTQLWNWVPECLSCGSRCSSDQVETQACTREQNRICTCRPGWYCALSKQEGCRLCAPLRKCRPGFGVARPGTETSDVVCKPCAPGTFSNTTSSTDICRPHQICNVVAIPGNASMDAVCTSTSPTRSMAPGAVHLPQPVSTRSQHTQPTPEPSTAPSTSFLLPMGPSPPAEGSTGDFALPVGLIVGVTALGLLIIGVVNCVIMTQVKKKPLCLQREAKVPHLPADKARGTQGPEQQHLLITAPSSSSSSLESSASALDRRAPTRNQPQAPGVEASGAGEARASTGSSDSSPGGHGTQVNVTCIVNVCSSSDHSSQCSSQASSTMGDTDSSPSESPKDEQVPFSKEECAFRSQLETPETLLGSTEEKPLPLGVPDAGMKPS", "assay": "FACS on human TNFR2+ Jurkat Clone No.3, biotinylated antibody with streptavidin-PE", "description": "FACS analysis was used to evaluate the binding of purified anti-TNFR2 antibody candidates produced from example 6 to cell surface TNFR2 target. Anti-human TNFR2 antibodies and negative control IgG were biotinylated using a EZ-Link™ Micro Sulfo-NHS-Biotinylation Kit (Thermo Fisher Scientific, 21925) according to manufacturer's instructions. Biotinylated antibodies (100 μg/mL) were then incubated with Halt™ Protease Inhibitor Cocktail (100X, Thermo Scientific, 1862209) and 80 μg/mL Streptavidin-R-Phycoerythrin (PE) conjugate (Invitrogen, S21388). Antibodies were stored at 4° C. until use. 5×10⁵ Clone No.3 of human TNFR2⁺ Jurkat cells were distributed each well and blocked with human TruStain FcX™ (Biolegend, 422302) for 10 minutes at room temperature before stained with a serially diluted PE conjugated anti-human TNFR2 antibodies or hIgG1 starting from 50 μg/mL in a 5-fold dilution fashion for 30 minutes at 4° C. PE-anti hTNFR2 (Clone MR2-1, Thermo fisher #TNFR7504) was used as positive control. The geometric mean fluorescent intensity was measured on Sony SA3800 cell analyzer. Data were analyzed using Flowjo Software (Tree star Inc)."}, "[5]": {"target": "T4, Human TNFR1 (Acro Biosystem, TN1-H5222) (human, UniProt P19438 30-211)", "T4 construct": "Bought protein; also called TNF receptor type 1; CD120a", "T4 sequence (looked up)": "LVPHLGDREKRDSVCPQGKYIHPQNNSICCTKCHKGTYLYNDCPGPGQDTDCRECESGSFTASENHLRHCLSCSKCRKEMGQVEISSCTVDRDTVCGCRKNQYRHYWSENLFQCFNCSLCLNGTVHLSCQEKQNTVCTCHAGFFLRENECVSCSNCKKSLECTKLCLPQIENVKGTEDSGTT", "assay": "ELISA, receptor coated at 1 µg/mL", "description": "(§1) Human TNFR2 (Acro Biosystem, TN2-H5227), Human TNFR1 (Acro Biosystem, TN1-H5222), Cynomolgus TNFR2 (Sino Biological, 90102-CO8H) or mouse TNFR2 (R&D systems, 426-R2-050/CF) was coated on high binding polystyrene flat bottom micro-titer plates (Thermo Scientific, 3455) in PBS (PH=7.4, Gibco,10010-031) at 1 μg/mL and 100 μL per well. Plates were incubated at 4° C. overnight.\n(§2) Plates were warmed up to room temperature the next day and washed with 200 μL PBS containing 0.1% Tween 20 (Life technologies, 003005) per well for 3 times. Plates were blocked with 200 μL PBS buffer containing 1% BSA (Fisher Scientific, BP1600-100) per well for 1 hour at 37° C. Antibodies was titrated from 5 μg/mL in a 5-fold dilution series, distributed 100 μL per well and incubated at 37° C. for 1 hour. Human IgG1 isotype control (BioxCell, BE0297) was used as negative control. Plates were washed with 200 μL PBS containing 0.1% Tween 20 (Life technologies, 003005) per well for 3 times. Goat anti-Human IgG Fc Secondary Antibody-HRP conjugate (Invitrogen, A18817) were distributed at 0.5μg/mL and 100 μL per well to detect bound antibodies. After 1-hour incubation of secondary antibody at 37° C., plates were washed with 200 μL PBS containing 0.1% Tween 20 (Life technologies, 003005) per well for 3 times. Plates were developed using TMB Substrate Solution (eBioscience, 00-4201-56) and stopped with ELISA stop solution (Invitrogen, SSO4). The level of bound antibodies was determined by reading absorbance at 450 nm. Mouse anti-human TNFR1 antibody (ThermoFisher Scientific, MA1-81005) and goat anti mouse IgG secondary antibody-HRP conjugate (Invitrogen, 62-5520) were used as positive control for human TNFR1 detection. Armenian Hamster anti-mouse TNFR2 antibody (InVivoMab, BE0247) and HRP-Goat anti-Armenian Hamster IgG (H+L) Secondary Antibody (Invitrogen, PA1-32045) were used as positive control for mouse TNFR2 detection."}, "[6]": {"target": "T5, mouse TNFR2 (R&D systems, 426-R2-050/CF) (mouse, UniProt P25119 23-258)", "T5 construct": "Bought protein", "T5 sequence (looked up)": "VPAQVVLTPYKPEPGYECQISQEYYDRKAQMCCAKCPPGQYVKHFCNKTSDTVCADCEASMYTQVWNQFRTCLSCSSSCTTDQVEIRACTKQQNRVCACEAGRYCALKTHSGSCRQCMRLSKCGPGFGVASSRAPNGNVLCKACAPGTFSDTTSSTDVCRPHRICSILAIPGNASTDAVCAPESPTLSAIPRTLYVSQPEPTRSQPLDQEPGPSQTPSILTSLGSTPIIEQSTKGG", "assay": "ELISA, receptor coated at 1 µg/mL", "description": "as §1, §2"}, "[7]": {"target": "T1, His tagged human TNFR2 ECD (Acro …)", "assay": "ELISA, receptor coated at 1 µg/mL, antibody titrated from 5 µg/mL", "description": "as §1, §2"}},
  "data": [
    {"binder": "TN1-36 scFv on phage (scFv, V domains shown, also called TN1-36_VH/TN1-36_VL) VH: QQSVKESEGGLFKPTDTLTLTCTVSGFSLSSSAVSWVRQAPGNGLEWIGAIGSGGTSYYSNWAKSRSTITRDTNLNTVTLKMTSLTAADTATYFCARDPNSSDYPYGAYGMGLWGPGTLVTVSS VL: ELDLTQTPASVEVAAGGTVTINCQVSQSISSYLSWYQQKPGQPPKLLIYYASTLASGVPSRFSGSGSGTEFTLTISGVQCDDAATYYCQQGYITSNVGNAFGGGTEVVVK", "values": [
      {"measurement": "binding result", "setting": "[1]", "value": "binds"}
    ]},
    {"binder": "TN36-2 (antibody, human IgG1, V domains shown, Humanized; also called AL2/AL8) VH: EVQLVESGGGLIQPGGSLRLSCAASGFSLSSSAVSWVRQAPGKGLEWIGAIGSGGTSYYSNWAKSRFTISRDNSKNTLYLQMNSLRAEDTAVYYCARDPNSSDYPYGAYGMGLWGRGTLVTVSS VL: DIQMTQSPSSLSASVGDRVTITCQVSQSISSYLSWYQQKPGKAPKLLIYYASTLASGVPSRFSGSGSGTDFTLTISSLQPEDFATYYCQQGYITSNVGNAFGGGTKVEIK", "values": [
      {"measurement": "binding result", "setting": "[2]", "value": "no binding (tested: titrated from 100 µg/ml)"},
      {"measurement": "binding result", "setting": "[3]", "value": "binds"},
      {"measurement": "binding result", "setting": "[4]", "value": "binds"},
      {"measurement": "binding result", "setting": "[5]", "value": "no binding (tested: titrated from 5 µg/mL)"},
      {"measurement": "binding result", "setting": "[6]", "value": "no binding (tested: titrated from 5 µg/mL)"}
    ]},
    {"binder": "TN36-9 (antibody, human IgG1, V domains shown, Humanized; also called AL3/AL11) VH: EVQLVESGGGLIQPGGSLRLSCAASGFSLSSSAVSWVRQAPGKGLEWIGAIGSGGTSYYSNWAKSRFTISRDNSKNTLYLQMNSLRAEDTAVYFCARDPNSSDYPYGAYGMGLWGRGTLVTVSS VL: DIQLTQSPSFLSASVGDRVTITCQVSQSISSYLSWYQQKPGKAPKLLIYYASTLASGVPSRFSGSGSGTEFTLTISSLQPEDFATYYCQQGYITSNVGNAFGGGTKVEIK", "values": [
      {"measurement": "binding result", "setting": "[2]", "value": "no binding (tested: titrated from 100 µg/ml)"},
      {"measurement": "binding result", "setting": "[7]", "value": "binds"},
      {"measurement": "binding result", "setting": "[4]", "value": "binds"},
      {"measurement": "binding result", "setting": "[5]", "value": "no binding (tested: titrated from 5 µg/mL)"},
      {"measurement": "binding result", "setting": "[6]", "value": "no binding (tested: titrated from 5 µg/mL)"}
    ]}
  ]
}
